# In the supplement of paper PMC9112550, “Optimization of the antimicrobial peptide Bac7 by deep mutational scanning” (BMC Biology, 2022):
# Test system: Escherichia coli TOP10
# Assay: shrunken log2 fold change of peptide-encoding DNA abundance (4.5 h post-induction vs induction); higher = less antimicrobial activity (less host growth inhibition)
# Conditions: time post-induction: 4.5 h; library: site-saturation at positions 5, 18, 19, 20
# 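Further: peptides expressed intracellularly from a pBAD plasmid library in pooled LB shake-flask culture, induced with 0.3% L-arabinose, DNA abundance read by NGS, three biological replicates, DESeq2 with apeglm shrinkage.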
row,Sequence,shrunken log2 fold change
1,RRIRNRPPRLPRPRPRPQTMPRP,-0.238
2,RRIRDRPPRLPRPRPRPPENPRP,0.856
3,RRIRPRPPRLPRPRPRPDCGPRP,0.093
4,RRIRPRPPRLPRPRPRPVNLPRP,-0.136
5,RRIRMRPPRLPRPRPRPYRMPRP,-0.219
6,RRIRKRPPRLPRPRPRPCHEPRP,0.00408
7,RRIRHRPPRLPRPRPRPLRVPRP,0.298
8,RRIRMRPPRLPRPRPRPTLEPRP,0.259
9,RRIRARPPRLPRPRPRPVYEPRP,-0.426
10,RRIRERPPRLPRPRPRPQDRPRP,-0.167
11,RRIRWRPPRLPRPRPRPQDGPRP,0.0557
12,RRIRQRPPRLPRPRPRPQEKPRP,0.0313
13,RRIRPRPPRLPRPRPRPDSEPRP,-0.208
14,RRIRIRPPRLPRPRPRPGDGPRP,0.281
15,RRIRSRPPRLPRPRPRPKLMPRP,-0.125
16,RRIRDRPPRLPRPRPRPFRSPRP,-0.0401
17,RRIRDRPPRLPRPRPRPGGVPRP,0.434
18,RRIRIRPPRLPRPRPRPYQVPRP,-0.14
19,RRIRDRPPRLPRPRPRPSGEPRP,0.0799
20,RRIRRRPPRLPRPRPRPWETPRP,0.00928
21,RRIRNRPPRLPRPRPRPTDNPRP,-0.353
22,RRIRKRPPRLPRPRPRPEYDPRP,1.13
23,RRIRFRPPRLPRPRPRPWILPRP,-0.144
24,RRIRQRPPRLPRPRPRPGDVPRP,-0.222
25,RRIRGRPPRLPRPRPRPESEPRP,2

row,Sequence,shrunken log2 fold change
1,RRIRQRPPRLPRPRPRPEHQPRP,-0.0955
2,RRIRRRPPRLPRPRPRPEVCPRP,0.793
3,RRIRARPPRLPRPRPRPHAEPRP,0.955
4,RRIRSRPPRLPRPRPRPETLPRP,0.0893
5,RRIRKRPPRLPRPRPRPLILPRP,-0.265
6,RRIRTRPPRLPRPRPRPHQRPRP,-0.0533
7,RRIRHRPPRLPRPRPRPARHPRP,0.293
8,RRIRVRPPRLPRPRPRPATGPRP,0.119
9,RRIRIRPPRLPRPRPRPECAPRP,-0.0969
10,RRIRARPPRLPRPRPRPWESPRP,0.192
11,RRIRIRPPRLPRPRPRPVAYPRP,-0.0713
12,RRIRCRPPRLPRPRPRPNDEPRP,-0.0298
13,RRIRHRPPRLPRPRPRPDRPPRP,-0.184
14,RRIRPRPPRLPRPRPRPGVAPRP,0.27
15,RRIRERPPRLPRPRPRPTYIPRP,-1.02
16,RRIRPRPPRLPRPRPRPKKSPRP,0.085
17,RRIRERPPRLPRPRPRPLIWPRP,-0.364
18,RRIRTRPPRLPRPRPRPTPIPRP,0.139
19,RRIRLRPPRLPRPRPRPWTFPRP,-0.0155
20,RRIRTRPPRLPRPRPRPLQRPRP,-0.063
21,RRIRCRPPRLPRPRPRPTRLPRP,0.558
22,RRIRPRPPRLPRPRPRPVFGPRP,0.206
23,RRIRDRPPRLPRPRPRPPEMPRP,0.78
24,RRIRLRPPRLPRPRPRPQNPPRP,-0.263
25,RRIRNRPPRLPRPRPRPPDIPRP,-0.341

row,Sequence,shrunken log2 fold change
1,RRIRRRPPRLPRPRPRPGVYPRP,-0.0241
2,RRIRLRPPRLPRPRPRPYSWPRP,-0.176
3,RRIRWRPPRLPRPRPRPFSYPRP,-0.203
4,RRIRWRPPRLPRPRPRPKMFPRP,-0.0838
5,RRIRCRPPRLPRPRPRPPDVPRP,0.156
6,RRIRIRPPRLPRPRPRPLAMPRP,-0.159
7,RRIRPRPPRLPRPRPRPKCMPRP,-0.222
8,RRIRKRPPRLPRPRPRPYEPPRP,-0.243
9,RRIRHRPPRLPRPRPRPQPHPRP,-0.0753
10,RRIRPRPPRLPRPRPRPVNKPRP,-0.521
11,RRIRGRPPRLPRPRPRPAWHPRP,0.521
12,RRIRNRPPRLPRPRPRPFWMPRP,-0.112
13,RRIRMRPPRLPRPRPRPFWVPRP,-0.0112
14,RRIRMRPPRLPRPRPRPRWEPRP,0.814
15,RRIRERPPRLPRPRPRPSEWPRP,-0.0737
16,RRIRMRPPRLPRPRPRPPIMPRP,0.0866
17,RRIRPRPPRLPRPRPRPIYTPRP,-0.245
18,RRIRTRPPRLPRPRPRPMKKPRP,-0.115
19,RRIRARPPRLPRPRPRPEKIPRP,0.649
20,RRIRMRPPRLPRPRPRPHELPRP,0.627
21,RRIRWRPPRLPRPRPRPRVNPRP,0.478
22,RRIRTRPPRLPRPRPRPGWGPRP,0.343
23,RRIRERPPRLPRPRPRPLWPPRP,0.0539
24,RRIRDRPPRLPRPRPRPHLVPRP,-0.0562
25,RRIRTRPPRLPRPRPRPWMEPRP,-0.326

row,Sequence,shrunken log2 fold change
1,RRIRWRPPRLPRPRPRPVYKPRP,-0.516
2,RRIRGRPPRLPRPRPRPVDWPRP,1.03
3,RRIRVRPPRLPRPRPRPKSAPRP,0.172
4,RRIRSRPPRLPRPRPRPPIWPRP,0.0326
5,RRIRQRPPRLPRPRPRPVNGPRP,-0.0109
6,RRIRIRPPRLPRPRPRPTWMPRP,-0.306
7,RRIRWRPPRLPRPRPRPHDEPRP,-0.2
8,RRIRYRPPRLPRPRPRPDHSPRP,-0.889
9,RRIRHRPPRLPRPRPRPWRRPRP,-0.0609
10,RRIRPRPPRLPRPRPRPCDHPRP,-0.128
11,RRIRPRPPRLPRPRPRPMKRPRP,0.153
12,RRIRYRPPRLPRPRPRPDPTPRP,-0.435
13,RRIRFRPPRLPRPRPRPGQCPRP,-0.114
14,RRIRDRPPRLPRPRPRPCLMPRP,0.209
15,RRIRMRPPRLPRPRPRPLWGPRP,0.119
16,RRIRVRPPRLPRPRPRPCKFPRP,0.01
17,RRIRTRPPRLPRPRPRPDMHPRP,-0.249
18,RRIRERPPRLPRPRPRPEGHPRP,0.11
19,RRIRDRPPRLPRPRPRPGMTPRP,0.0654
20,RRIRTRPPRLPRPRPRPQKTPRP,-0.0581
21,RRIRPRPPRLPRPRPRPCTGPRP,-0.00227
22,RRIRLRPPRLPRPRPRPCTDPRP,-0.199
23,RRIRQRPPRLPRPRPRPDEDPRP,-0.0326
24,RRIRRRPPRLPRPRPRPRGPPRP,0.871
25,RRIRERPPRLPRPRPRPKWPPRP,0.016

row,Sequence,shrunken log2 fold change
1,RRIRVRPPRLPRPRPRPMPWPRP,0.056
2,RRIRNRPPRLPRPRPRPSFIPRP,-0.934
3,RRIRVRPPRLPRPRPRPGKFPRP,-0.17
4,RRIRARPPRLPRPRPRPTVLPRP,0.106
5,RRIRLRPPRLPRPRPRPMHPPRP,-0.0318
6,RRIRVRPPRLPRPRPRPWPQPRP,0.104
7,RRIRVRPPRLPRPRPRPSVAPRP,0.595
8,RRIRCRPPRLPRPRPRPKIDPRP,-0.0573
9,RRIRNRPPRLPRPRPRPWITPRP,-0.0261
10,RRIRVRPPRLPRPRPRPPQGPRP,0.203
11,RRIRKRPPRLPRPRPRPPPIPRP,0.748
12,RRIRIRPPRLPRPRPRPHGTPRP,-0.236
13,RRIRDRPPRLPRPRPRPMSFPRP,-0.00238
14,RRIRVRPPRLPRPRPRPEVFPRP,0.0748
15,RRIRVRPPRLPRPRPRPHHEPRP,-0.582
16,RRIRYRPPRLPRPRPRPNYLPRP,-0.161
17,RRIRWRPPRLPRPRPRPSWCPRP,-0.0416
18,RRIRNRPPRLPRPRPRPVGSPRP,0.0409
19,RRIRGRPPRLPRPRPRPMFMPRP,0.0699
20,RRIRIRPPRLPRPRPRPMTYPRP,-0.0592
21,RRIRNRPPRLPRPRPRPCLDPRP,-0.0122
22,RRIRHRPPRLPRPRPRPKTGPRP,-0.0854
23,RRIRDRPPRLPRPRPRPWYPPRP,-0.0798
24,RRIRFRPPRLPRPRPRPNRDPRP,-0.0824
25,RRIRCRPPRLPRPRPRPRYIPRP,-0.035

row,Sequence,shrunken log2 fold change
1,RRIRRRPPRLPRPRPRPAFQPRP,1.62
2,RRIRERPPRLPRPRPRPMNQPRP,-0.67
3,RRIRVRPPRLPRPRPRPSFAPRP,0.0593
4,RRIRARPPRLPRPRPRPKRYPRP,0.159
5,RRIRFRPPRLPRPRPRPFCPPRP,-0.386
6,RRIRRRPPRLPRPRPRPQNGPRP,-0.0551
7,RRIRWRPPRLPRPRPRPAEFPRP,0.292
8,RRIRCRPPRLPRPRPRPPIAPRP,1.41
9,RRIRDRPPRLPRPRPRPWRHPRP,0.0719
10,RRIRVRPPRLPRPRPRPKHFPRP,0.0968
11,RRIRVRPPRLPRPRPRPISGPRP,-0.118
12,RRIRSRPPRLPRPRPRPNMCPRP,-0.138
13,RRIRERPPRLPRPRPRPFTLPRP,-0.21
14,RRIRARPPRLPRPRPRPWWSPRP,0.271
15,RRIRIRPPRLPRPRPRPQVQPRP,-0.195
16,RRIRIRPPRLPRPRPRPYIVPRP,-0.0153
17,RRIRFRPPRLPRPRPRPLNAPRP,-0.166
18,RRIRTRPPRLPRPRPRPHCRPRP,-0.0822
19,RRIRKRPPRLPRPRPRPFFGPRP,0.304
20,RRIRHRPPRLPRPRPRPGEKPRP,-0.102
21,RRIRGRPPRLPRPRPRPFFEPRP,0.428
22,RRIRNRPPRLPRPRPRPFMHPRP,-0.142
23,RRIRLRPPRLPRPRPRPMVWPRP,0.0457
24,RRIRTRPPRLPRPRPRPSKPPRP,-0.487
25,RRIRYRPPRLPRPRPRPLSKPRP,-1.03
